US20020010135A1 (Amgen, published 2002)
Residue numbers refer to the chain shown, from its start. Names and notes keep the numbering of the source.

B1: wild type human NT-3 (r-metHuNT-3) (ligand)
chain: MYAEHKSHRGEYSVCDSESLWVTDKSSAIDIRGHQVTVLGEIKTGNSPVKQYFYETRCKEARPVKNGCRGIDDKHWNSQCKTSQTYVRALTSENNKLVGWRWIRIDTSCVCALSRKIGRT
B2: NT-3(1-119)R61A,K64D (ligand)
chain: B1 chain with R62A, K65D
B3: NT-3(1-117)R61A,K64D (ligand)
chain: MYAEHKSHRGEYSVCDSESLWVTDKSSAIDIRGHQVTVLGEIKTGNSPVKQYFYETRCKEAAPVDNGCRGIDDKHWNSQCKTSQTYVRALTSENNKLVGWRWIRIDTSCVCALSRKIG

Target: human trkC receptor protein (human, UniProt Q16288 32-839)
Sequence (Q16288 32-839): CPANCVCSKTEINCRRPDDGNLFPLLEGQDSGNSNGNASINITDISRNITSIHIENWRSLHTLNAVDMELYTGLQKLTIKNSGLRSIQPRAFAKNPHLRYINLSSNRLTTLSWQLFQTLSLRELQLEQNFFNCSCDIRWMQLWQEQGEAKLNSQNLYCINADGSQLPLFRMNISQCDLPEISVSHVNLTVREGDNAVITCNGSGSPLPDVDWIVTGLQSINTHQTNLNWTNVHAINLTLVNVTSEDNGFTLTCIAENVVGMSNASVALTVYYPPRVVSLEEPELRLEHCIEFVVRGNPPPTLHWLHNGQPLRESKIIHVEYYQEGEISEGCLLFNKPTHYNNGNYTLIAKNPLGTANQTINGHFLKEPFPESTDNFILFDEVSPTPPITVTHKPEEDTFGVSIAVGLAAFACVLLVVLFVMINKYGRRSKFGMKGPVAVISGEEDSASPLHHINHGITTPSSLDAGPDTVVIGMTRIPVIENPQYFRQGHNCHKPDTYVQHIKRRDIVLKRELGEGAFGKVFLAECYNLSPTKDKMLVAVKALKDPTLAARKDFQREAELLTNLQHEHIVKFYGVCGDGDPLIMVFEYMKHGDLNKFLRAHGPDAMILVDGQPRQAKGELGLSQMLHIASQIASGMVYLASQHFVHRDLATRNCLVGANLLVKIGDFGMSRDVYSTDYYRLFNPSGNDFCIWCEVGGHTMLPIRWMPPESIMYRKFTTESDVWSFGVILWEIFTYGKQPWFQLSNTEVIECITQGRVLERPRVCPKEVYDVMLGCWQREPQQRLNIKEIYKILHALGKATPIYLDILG
Assay: cell-based or functional assay

| Molecule | Percentage of expected activity (%), in vitro mitogenic bioassay [%] |
| --- | --- |
| B1 | 72 |
| B2 | 524 |
| B3 | 328 |

Target: trkB receptor
Assay: cell-based or functional assay

| Molecule | Bioactivity (mg/mg), MTS mitogenic bioassay [mg/mg] |
| --- | --- |
| BDNF, K65D, K73D, K95A, R97A (from UniProt P23560 129-247) (ligand) | 1.24 |
| BDNF, P60E, K65D, K73D, K95A (from UniProt P23560 129-247) (ligand) | 0.61 |
| Wild type BDNF (from UniProt P23560 129-247) (ligand) | 0.61 |
